Experimental data taken from paper PMC9456098, “Crystal Structure of the Recombination Mediator Protein RecO from Campylobacter jejuni and Its Interaction with DNA and a Zinc Ion”.

T1: cjRecO (Campylobacter jejuni subsp. jejuni ATCC …, UniProt Q0PC17 1-204)
T1 sequence: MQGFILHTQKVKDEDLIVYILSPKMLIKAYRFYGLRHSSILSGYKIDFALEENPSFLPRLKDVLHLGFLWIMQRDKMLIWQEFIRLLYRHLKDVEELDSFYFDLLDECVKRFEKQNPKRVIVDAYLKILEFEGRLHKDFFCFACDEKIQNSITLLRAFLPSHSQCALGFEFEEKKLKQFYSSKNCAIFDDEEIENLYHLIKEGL


What was measured:
[1] = system: cjSSB (Campylobacter jejuni (strain ATCC 33291?)); assay: fluorescence polarization; conditions: FP: 20 mM Tris pH 8.0, 30 mM NaCl, 5 mM beta-mercaptoethanol, 0.8 nM fluorescein-ssDNA; temperature not stated; one-site model
[2] = target: T1, cjRecO; assay: fluorescence polarization; no saturation up to 100 uM; binding detectable from ~1 uM; Kd stated as at least 20 uM; FP: 20 mM Tris pH 8.0, 30 mM NaCl, 5 mM beta-mercaptoethanol, 0.8 nM fluorescein-ssDNA; temperature not stated; one-site model; conditions: protein: recombinant; tags: N-terminal His6 removed by thrombin (tag-free); single strand

| Molecule | Kd [1] | Kd [2] |
| --- | --- | --- |
| TTATAGGCATATAGGAGTAATTTTCTTGGGCTATGCAGTA [40-mer ssDNA] | 21.4 nM |  |
| TTATAGGCATATAGGAGTAATTTTCTTGGGCTATGCAGTA (ssDNA) [40-mer ssDNA] |  | > 20000 nM |
